Patent US20180118785A1 (University of Pennsylvania, published 2018)
Values belong to the molecule of their own block, whether it stands above or below them. Bridges are numbered along the chain shown (N, C = ends). [ ]: non-standard residue; d: D form. Bpa = N[C@@H](Cc1ccc(C(=O)c2ccccc2)cc1)C(=O)O; 1Nal = N[C@@H](Cc1cccc2ccccc12)C(=O)O; 2Nal = N[C@@H](Cc1ccc2ccccc2c1)C(=O)O; Igl = N[C@H](C(=O)O)C1Cc2ccccc2C1

Experiments:
[1] = target: complement component C3 (human, in normal human plasma) (human) (UniProt P01024); test: cell-based or functional assay
[2] = target: complement component C3 (human, in normal human plasma) (human, UniProt P01024 23-1663); test: cell-based or functional assay

- complement-inhibitory activity compared with Compstatin (fold over Compstatin) [1]: 21
Molecule: Compstatin analog with Ile substituted for Thr at position 13 (peptide)

- Activity over Compstatin (inhibition of C3b/iC3b deposition on immunocomplexes in human plasma, compared by IC50) [2]: 19 fold over Compstatin
B1: Ac-4Y,9A (peptide)
peptide: Ac-ICVYQDWGAHRCT-NH2
modifications: disulfide 2-12
SMILES: CC[C@H](C)[C@H](NC(C)=O)C(=O)N[C@H]1CSSC[C@@H](C(=O)N[C@H](C(N)=O)[C@@H](C)O)NC(=O)[C@H](CCCNC(=N)N)NC(=O)[C@H](Cc2c[nH]cn2)NC(=O)[C@H](C)NC(=O)CNC(=O)[C@H](Cc2c[nH]c3ccccc23)NC(=O)[C@H](CC(=O)O)NC(=O)[C@H](CCC(N)=O)NC(=O)[C@H](Cc2ccc(O)cc2)NC(=O)[C@H](C(C)C)NC1=O

- Activity over Compstatin (inhibition of C3b/iC3b deposition on immunocomplexes in human plasma, compared by IC50) [2]: 55 fold over Compstatin
Molecule: Ac-ICV[Igl]QDWGAHRCT-NH2 (disulfide 2-12 (inferred)) [Ac-4IgI,9A]

- Activity over Compstatin (inhibition of C3b/iC3b deposition on immunocomplexes in human plasma, compared by IC50) [2]: 55 fold over Compstatin
Molecule: Ac-ICV[Igl]QDWGAHRCT-OH (disulfide 2-12 (inferred)) [Ac-4IgI,9A-OH]

- Activity over Compstatin (inhibition of C3b/iC3b deposition on immunocomplexes in human plasma, compared by IC50) [2]: 9 fold over Compstatin
B3: Ac-4Dht,9A-OH (peptide)
peptide: ICVXQDWGAHRCT
modifications: N-terminal acetyl; dihydrotryptophan (Dht) at position 4; free C-terminal acid (COOH); disulfide bond between the two Cys residues

More lines, now with the values behind:

Molecule: Ac-ICV[Bpa]QDWGAHRCT-OH (disulfide 2-12 (inferred)) [Ac-4(Bpa),9A-OH]
- Activity over Compstatin (inhibition of C3b/iC3b deposition on immunocomplexes in human plasma, compared by IC50) [2]: 55 fold over Compstatin

Molecule: Ac-ICV[1Nal]QDWGAHRCT-OH (disulfide 2-12 (inferred)) [Ac-4(1-Nal),9A-OH]
- Activity over Compstatin (inhibition of C3b/iC3b deposition on immunocomplexes in human plasma, compared by IC50) [2]: 23 fold over Compstatin

B2: +G,4W,9A + AN-OH (peptide)
peptide: H-GICVWQDWGAHRCTAN-OH
modifications: disulfide 3-13
SMILES: CC[C@H](C)[C@H](NC(=O)CN)C(=O)N[C@H]1CSSC[C@@H](C(=O)N[C@H](C(=O)N[C@@H](C)C(=O)N[C@@H](CC(N)=O)C(=O)O)[C@@H](C)O)NC(=O)[C@H](CCCNC(=N)N)NC(=O)[C@H](Cc2c[nH]cn2)NC(=O)[C@H](C)NC(=O)CNC(=O)[C@H](Cc2c[nH]c3ccccc23)NC(=O)[C@H](CC(=O)O)NC(=O)[C@H](CCC(N)=O)NC(=O)[C@H](Cc2c[nH]c3ccccc23)NC(=O)[C@H](C(C)C)NC1=O
- Activity over Compstatin (inhibition of C3b/iC3b deposition on immunocomplexes in human plasma, compared by IC50) [2]: 38 fold over Compstatin

Molecule: Ac-ICV[2Nal]QDWGAHRCT-NH2 (disulfide 2-12 (inferred)) [Ac-4(2-Nal),9A]
- Activity over Compstatin (inhibition of C3b/iC3b deposition on immunocomplexes in human plasma, compared by IC50) [2]: 66 fold over Compstatin

Molecule: Ac-ICV[2Nal]QDWGAHRCT-OH (disulfide 2-12 (inferred)) [Ac-4(2-Nal),9A-OH]
- Activity over Compstatin (inhibition of C3b/iC3b deposition on immunocomplexes in human plasma, compared by IC50) [2]: 39 fold over Compstatin
